Reference: the supplement of paper PMC9112550, “Optimization of the antimicrobial peptide Bac7 by deep mutational scanning” (BMC Biology, 2022)

These sequences were tested on Escherichia coli TOP10 (assay: shrunken log2 fold change of peptide-encoding DNA abundance (4.5 h post-induction vs induction); higher = less antimicrobial activity (less host growth inhibition)). Conditions: time post-induction: 4.5 h; library: site-saturation at positions 5, 18, 19, 20.
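Also: peptides expressed intracellularly from a pBAD plasmid library in pooled LB shake-flask culture, induced with 0.3% L-arabinose, DNA abundance read by NGS, three biological replicates, DESeq2 with apeglm shrinkage.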

Row | Sequence | shrunken log2 fold change
1 | RRIRFRPPRLPRPRPRPNFQPRP | -0.272
2 | RRIRMRPPRLPRPRPRPENFPRP | 0.0515
3 | RRIRGRPPRLPRPRPRPNTTPRP | 0.325
4 | RRIRHRPPRLPRPRPRPSEEPRP | -0.00149
5 | RRIRWRPPRLPRPRPRPCLGPRP | 0.0309
6 | RRIRTRPPRLPRPRPRPTSTPRP | -0.0605
7 | RRIRTRPPRLPRPRPRPTKEPRP | -0.0327
8 | RRIRYRPPRLPRPRPRPEGGPRP | 0.0214
9 | RRIRQRPPRLPRPRPRPADMPRP | -0.0927
10 | RRIRYRPPRLPRPRPRPTFIPRP | -0.0922
11 | RRIRSRPPRLPRPRPRPKDHPRP | -0.131
12 | RRIRTRPPRLPRPRPRPVQAPRP | 0.0641
13 | RRIRFRPPRLPRPRPRPYWAPRP | -0.328
14 | RRIRYRPPRLPRPRPRPTMVPRP | -0.269
15 | RRIRQRPPRLPRPRPRPWFIPRP | -0.302
16 | RRIRLRPPRLPRPRPRPWPTPRP | 0.0538
17 | RRIRSRPPRLPRPRPRPSTMPRP | -0.455
18 | RRIRWRPPRLPRPRPRPHYTPRP | -0.638
19 | RRIRHRPPRLPRPRPRPDWDPRP | -0.0204
20 | RRIRCRPPRLPRPRPRPHIQPRP | -0.73

Row | Sequence | shrunken log2 fold change
21 | RRIRDRPPRLPRPRPRPNEWPRP | -0.00174
22 | RRIRVRPPRLPRPRPRPKWVPRP | 0.0874
23 | RRIRERPPRLPRPRPRPDAHPRP | -0.308
24 | RRIRTRPPRLPRPRPRPCWSPRP | 0.499
25 | RRIRWRPPRLPRPRPRPHTSPRP | -0.672
26 | RRIRNRPPRLPRPRPRPATGPRP | -0.04
27 | RRIRVRPPRLPRPRPRPSNEPRP | -0.775
28 | RRIRHRPPRLPRPRPRPEDFPRP | 0.0333
29 | RRIRYRPPRLPRPRPRPRHFPRP | -0.209
30 | RRIRYRPPRLPRPRPRPLSEPRP | -0.215
31 | RRIRTRPPRLPRPRPRPLMDPRP | -0.0405
32 | RRIRHRPPRLPRPRPRPQRHPRP | 0.0629
33 | RRIRDRPPRLPRPRPRPIQWPRP | -0.153
34 | RRIRVRPPRLPRPRPRPPAMPRP | 0.246
35 | RRIRRRPPRLPRPRPRPFGFPRP | 0.197
36 | RRIRQRPPRLPRPRPRPPLRPRP | 0.49
37 | RRIRERPPRLPRPRPRPLIQPRP | -0.28
38 | RRIRDRPPRLPRPRPRPGWDPRP | -0.182
39 | RRIRFRPPRLPRPRPRPCEVPRP | -0.0179
40 | RRIRWRPPRLPRPRPRPLLMPRP | 0.284

Row | Sequence | shrunken log2 fold change
41 | RRIRTRPPRLPRPRPRPIVHPRP | -0.0385
42 | RRIRLRPPRLPRPRPRPDSVPRP | 0.0031
43 | RRIRQRPPRLPRPRPRPIIFPRP | -0.271
44 | RRIRCRPPRLPRPRPRPVMWPRP | 0.131
45 | RRIRQRPPRLPRPRPRPCELPRP | 0.0039
46 | RRIRHRPPRLPRPRPRPTFKPRP | -0.537
47 | RRIRSRPPRLPRPRPRPFFRPRP | -0.0536
48 | RRIRCRPPRLPRPRPRPVTGPRP | -0.0982
49 | RRIRARPPRLPRPRPRPAGDPRP | 1.01
50 | RRIRARPPRLPRPRPRPPGYPRP | 0.365
51 | RRIRVRPPRLPRPRPRPWFAPRP | -0.191
52 | RRIRNRPPRLPRPRPRPVQVPRP | -0.317
53 | RRIRDRPPRLPRPRPRPVPCPRP | 0.0758
54 | RRIRIRPPRLPRPRPRPVWLPRP | 0.0726
55 | RRIRERPPRLPRPRPRPEMSPRP | 0.0528
56 | RRIRCRPPRLPRPRPRPNYYPRP | -0.868
57 | RRIRFRPPRLPRPRPRPDTKPRP | -0.123
58 | RRIRFRPPRLPRPRPRPNLHPRP | -0.235
59 | RRIRIRPPRLPRPRPRPIVWPRP | 0.136
60 | RRIRNRPPRLPRPRPRPNMEPRP | -0.0369
